Experiments:
[1] = target: His6-Sep fusion protein from construct BspA-6xHis-Sep (Lactobacillus fermentum BR11); assay: whole cell ELISA for the His6 epitope on L. fermentum cells with BspA-6xHis-Sep; parent BR11 cells gave 0.0168±0.0007
[2] = target: His6-Sep fusion protein from construct BspA-6xHis-Sep (Lactobacillus fermentum BR11); assay: whole cell ELISA for the His6 epitope on L. fermentum cells with BspA-6xHis-Sep against parent BR11 cells

A450nm signal per OD600 nm unit of cells (A450nm per OD600 nm unit of cells) [1]: 0.0302
fold signal over L. fermentum BR11 parent cells [2]: 1.8 fold
Substance: anti-His5 monoclonal antibody (Qiagen, Hilden, Germany)
